Measured values as given in article PMC3084761.

Target: ECFP-FKBP38 fusion protein (pECFP-C1-FKBP38), Q14318
Experiment: FRET or BRET; live-cell confocal FRET of ECFP (donor) and EYFP (acceptor) fusions in HEK293 cells transfected 48 h; acceptor/donor plasmid ratios 1:1 to 5:1; FRET efficiency against A/D ratio fitted to a 1:1 binding model
Settings: remark: other sources report otherwise

ECFP-FKBP38 fusion protein (pECFP-C1-FKBP38), Q14318, sequence (Q14318 whole entry, the tested form may be a part): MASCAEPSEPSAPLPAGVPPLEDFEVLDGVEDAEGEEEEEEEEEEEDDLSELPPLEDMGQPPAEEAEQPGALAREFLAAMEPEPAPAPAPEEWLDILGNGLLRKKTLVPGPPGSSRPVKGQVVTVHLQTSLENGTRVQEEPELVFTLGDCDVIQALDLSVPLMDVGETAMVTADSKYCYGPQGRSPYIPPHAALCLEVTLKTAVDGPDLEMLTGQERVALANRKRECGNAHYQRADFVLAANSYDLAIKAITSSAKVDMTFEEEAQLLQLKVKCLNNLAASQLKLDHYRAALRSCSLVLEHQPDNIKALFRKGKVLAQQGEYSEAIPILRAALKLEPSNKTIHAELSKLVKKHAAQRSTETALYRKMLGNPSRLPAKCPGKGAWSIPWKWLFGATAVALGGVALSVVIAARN

B1: PHD2-EYFP (PHD2 coding sequence in pEYFP-N1), Q9GZT9 1-426 (enzyme)
chain: MANDSGGPGGPSPSERDRQYCELCGKMENLLRCSRCRSSFYCCKEHQRQDWKKHKLVCQGSEGALGHGVGPHQHSGPAPPAAVPPPRAGAREPRKAAARRDNASGDAAKGKVKAKPPADPAAAASPCRAAAGGQGSAVAAEAEPGKEEPPARSSLFQEKANLYPPSNTPGDALSPGGGLRPNGQTKPLPALKLALEYIVPCMNKHGICVVDDFLGKETGQQIGDEVRALHDTGKFTDGQLVSQKSDSSKDIRGDKITWIEGKEPGCETIGLLMSSMDDLIRHCNGKLGSYKINGRTKAMVACYPGNGTGYVRHVDNPNGDGRCVTCIYYLNKDWDAKVSGGILRIFPEGKAQFADIEPKFDRLLFFWSDRRNPHEVQPAYATRYAITVWYFDADERARAKVKYLTGEKGVRVELNKPSDSVGKDVF
- maximum FRET efficiency: > 20%
